Measurements taken from paper PMC3728621, “Structural analysis of autoinhibition in the Ras-specific exchange factor RasGRP1” (eLife, 2013).

B1: RasGRP1^CC (human RasGRP1 C-terminal coiled coil, residues 739-793) (domain or fragment, UniProt O95267 739-793, looked up)
chain: ELRHLRLPTYQELEQEINTLKADNDALKIQLKYAQKKIESLQLEKSNHVLAQMEQ
notes: human RasGRP1 (full length 797 residues), residues 739-793, containing the predicted coiled coil (747-789); Parallel dimeric coiled coil; The model holds residues 745-793 (molecule A) and 745-786 (molecule B); also called C-terminal oligomerization domain; source: E. coli BL21(DE3), purified (HisTrap, tag removal with ULP1, second HisTrap, Superdex gel filtration); not shown: His6, N-terminal, …
B2: RasGRP1^CEC (human Ras guanine nucleotide releasing protein 1, residues 50-607: REM, Cdc25, EF and C1 domains) (domain or fragment, UniProt O95267 50-607, looked up)
chain: MVSLGHLAKGASLDDLIDSCIQSFDADGNLCRSNQLLQVMLTMHRIVISSAELLQKVITLYKDALAKNSPGLCLKICYFVRYWITEFWVMFKMDASLTDTMEEFQELVKAKGEELHCRLIDTTQINARDWSRKLTQRIKSNTSKKRKVSLLFDHLEPEELSEHLTYLEFKSFRRISFSDYQNYLVNSCVKENPTMERSIALCNGISQWVQLMVLSRPTPQLRAEVFIKFIQVAQKLHQLQNFNTLMAVIGGLCHSSISRLKETSSHVPHEINKVLGEMTELLSSSRNYDNYRRAYGECTDFKIPILGVHLKDLISLYEAMPDYLEDGKVNVHKLLALYNHISELVQLQEVAPPLEANKDLVHLLTLSLDLYYTEDEIYELSYAREPRNHRAPPLTPSKPPVVVDWASGVSPKPDPKTISKHVQRMVDSVFKNYDHDQDGYISQEEFEKIAASFPFSFCVMDKDREGLISRDEITAYFMRASSIYSKLGLGFPHNFQETTYLKPTFCDNCAGFLWGVIKQGYRCKDCGMNCHKQCKDLVVFECKKRAKNPVAPTENNTS
notes: human RasGRP1 (full length 797 residues), residues 50-607, spanning the REM, Cdc25, EF and C1 domains; Crystallographic dimer; In gel filtration it forms dimers and higher order oligomers, depending on concentration; The structural model spans residues 53-593; 186-192 and 437-448 are not modelled; source: E. coli BL21(DE3), purified (HisTrap, tag removal with ULP1, second HisTrap, Superdex gel …)

What was measured:
[1] = molecular target: the molecule itself; test: multiangle light scattering; RasGRP1^CC in solution, 30 μM to 1.5 mM monomer; data not shown
[2] = molecular target: the molecule itself; test: crystal structure; RasGRP1^CEC at 3.0 Å; hanging drop, 0.15 M sodium citrate tribasic, 22% PEG 3350, 1 mM MnCl2, 20°C; dimer generated by a crystallographic twofold axis

| Protein | stoichiometry N [1] | binding result [2] |
| --- | --- | --- |
| B1 | 2 |  |
| B2 |  | binds |
